Literature values in article PMC12990809.

Key:
Experiment in all cases: pulldown
Conditions in all cases: 20 nM protein, 1.5 uM RNA pool; 20 mM HEPES pH 7.8, 70 mM KCl, 10 mM NaCl, 10% glycerol, 2 mM DTT, 0.1 ug/uL BSA; 30 min, 4 C (protocol of this paper; not …); cited from earlier work
[1] = target: PABPC4 (Homo sapiens) (UniProt Q13310)
[2] = target: T1, RBM46 (Homo sapiens) (UniProt Q8TBY0)
T1 sequence: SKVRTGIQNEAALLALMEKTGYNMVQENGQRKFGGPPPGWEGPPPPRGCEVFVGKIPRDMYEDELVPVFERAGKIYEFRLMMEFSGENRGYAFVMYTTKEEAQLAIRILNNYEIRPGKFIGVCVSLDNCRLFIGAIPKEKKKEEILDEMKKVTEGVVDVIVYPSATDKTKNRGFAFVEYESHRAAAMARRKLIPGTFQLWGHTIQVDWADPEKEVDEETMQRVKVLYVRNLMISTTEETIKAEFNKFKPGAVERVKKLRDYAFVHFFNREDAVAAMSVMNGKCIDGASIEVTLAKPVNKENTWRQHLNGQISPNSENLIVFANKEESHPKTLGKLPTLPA

[3] = target: T2, Rbp1 (Drosophila melanogaster) (UniProt Q02427)
T2 sequence: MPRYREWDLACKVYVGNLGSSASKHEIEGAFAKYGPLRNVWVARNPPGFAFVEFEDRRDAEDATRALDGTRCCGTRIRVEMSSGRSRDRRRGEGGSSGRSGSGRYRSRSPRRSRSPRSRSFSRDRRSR

[4] = target: T3, Rsf1 (Drosophila melanogaster) (UniProt Q24491)
T3 sequence: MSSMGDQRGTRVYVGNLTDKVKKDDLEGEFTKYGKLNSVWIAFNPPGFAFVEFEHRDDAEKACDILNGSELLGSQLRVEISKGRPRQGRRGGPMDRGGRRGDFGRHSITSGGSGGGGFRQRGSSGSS

[5] = target: T4, QKI (Homo sapiens) (UniProt Q96PU8)
T4 sequence: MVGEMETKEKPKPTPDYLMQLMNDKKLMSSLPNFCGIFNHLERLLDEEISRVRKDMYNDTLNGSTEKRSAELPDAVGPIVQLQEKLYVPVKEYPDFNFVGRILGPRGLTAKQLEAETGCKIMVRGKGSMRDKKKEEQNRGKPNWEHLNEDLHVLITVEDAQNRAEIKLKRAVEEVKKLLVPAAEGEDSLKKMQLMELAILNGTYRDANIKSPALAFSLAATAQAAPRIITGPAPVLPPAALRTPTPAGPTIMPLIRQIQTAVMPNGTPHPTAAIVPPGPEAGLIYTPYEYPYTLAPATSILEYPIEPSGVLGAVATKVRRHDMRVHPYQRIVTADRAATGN

[6] = target: T5, RBM3 (Homo sapiens) (UniProt P98179)
T5 sequence: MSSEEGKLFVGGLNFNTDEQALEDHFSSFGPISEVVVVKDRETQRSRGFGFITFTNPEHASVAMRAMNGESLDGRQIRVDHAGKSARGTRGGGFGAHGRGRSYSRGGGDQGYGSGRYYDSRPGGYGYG

[7] = target: T6, RBM41 (Homo sapiens) (UniProt Q96IZ5)
T6 sequence: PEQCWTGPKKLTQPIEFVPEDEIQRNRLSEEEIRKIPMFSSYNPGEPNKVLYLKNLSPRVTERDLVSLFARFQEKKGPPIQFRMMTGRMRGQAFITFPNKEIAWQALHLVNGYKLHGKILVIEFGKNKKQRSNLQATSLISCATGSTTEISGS

[8] = target: SRSF9 (Homo sapiens) (UniProt Q13242)
[9] = target: T7, CG14718 (Drosophila melanogaster) (UniProt Q7K543)
T7 sequence: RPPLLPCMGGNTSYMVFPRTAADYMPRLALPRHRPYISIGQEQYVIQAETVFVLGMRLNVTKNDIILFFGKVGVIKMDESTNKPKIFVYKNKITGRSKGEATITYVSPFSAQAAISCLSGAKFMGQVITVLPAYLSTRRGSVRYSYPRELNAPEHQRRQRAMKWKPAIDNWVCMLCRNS

[10] = target: T8, RBM4 (Homo sapiens) (UniProt Q9BWF3)
T8 sequence: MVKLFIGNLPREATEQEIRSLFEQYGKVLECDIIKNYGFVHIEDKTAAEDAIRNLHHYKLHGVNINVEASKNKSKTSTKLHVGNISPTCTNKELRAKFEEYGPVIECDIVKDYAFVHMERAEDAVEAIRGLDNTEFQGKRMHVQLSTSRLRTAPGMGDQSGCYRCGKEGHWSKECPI

[11] = target: T9, SART3 (Homo sapiens) (UniProt Q15020)
T9 sequence: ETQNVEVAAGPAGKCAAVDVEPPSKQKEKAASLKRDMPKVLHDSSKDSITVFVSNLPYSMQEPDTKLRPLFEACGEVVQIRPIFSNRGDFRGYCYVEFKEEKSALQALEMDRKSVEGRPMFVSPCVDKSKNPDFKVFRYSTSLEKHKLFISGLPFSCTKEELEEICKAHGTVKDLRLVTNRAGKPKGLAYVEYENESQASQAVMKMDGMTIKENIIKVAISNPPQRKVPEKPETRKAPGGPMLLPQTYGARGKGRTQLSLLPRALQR

[12] = target: RBM5 (Homo sapiens) (UniProt P52756)
[13] = target: T10, RBM28 (Homo sapiens) (UniProt Q9NW13)
T10 sequence: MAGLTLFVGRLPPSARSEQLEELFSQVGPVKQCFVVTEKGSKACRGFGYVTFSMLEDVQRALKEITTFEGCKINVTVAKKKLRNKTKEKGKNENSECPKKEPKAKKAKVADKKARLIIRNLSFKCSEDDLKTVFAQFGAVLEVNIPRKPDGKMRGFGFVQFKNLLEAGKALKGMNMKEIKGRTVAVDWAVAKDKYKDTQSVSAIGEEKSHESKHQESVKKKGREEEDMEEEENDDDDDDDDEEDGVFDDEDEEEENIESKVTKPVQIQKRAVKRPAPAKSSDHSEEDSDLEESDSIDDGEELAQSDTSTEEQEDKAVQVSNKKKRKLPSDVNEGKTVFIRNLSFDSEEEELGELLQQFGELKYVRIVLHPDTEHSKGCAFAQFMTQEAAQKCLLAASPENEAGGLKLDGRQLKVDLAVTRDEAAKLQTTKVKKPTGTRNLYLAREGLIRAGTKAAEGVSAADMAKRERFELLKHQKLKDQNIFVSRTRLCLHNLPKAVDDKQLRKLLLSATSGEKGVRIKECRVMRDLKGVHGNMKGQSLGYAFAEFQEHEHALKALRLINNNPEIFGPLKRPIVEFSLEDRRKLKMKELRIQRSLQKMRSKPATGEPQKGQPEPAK

[14] = target: T11, SAMD4A (Homo sapiens) (UniProt Q9UPU9)
T11 sequence: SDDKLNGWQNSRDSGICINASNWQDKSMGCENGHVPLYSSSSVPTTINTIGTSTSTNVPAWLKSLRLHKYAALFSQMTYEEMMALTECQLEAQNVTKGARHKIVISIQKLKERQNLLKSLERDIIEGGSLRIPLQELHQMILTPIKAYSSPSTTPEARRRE

[15] = target: T12, SF2 (Drosophila melanogaster) (UniProt Q7KJ21)
T12 sequence: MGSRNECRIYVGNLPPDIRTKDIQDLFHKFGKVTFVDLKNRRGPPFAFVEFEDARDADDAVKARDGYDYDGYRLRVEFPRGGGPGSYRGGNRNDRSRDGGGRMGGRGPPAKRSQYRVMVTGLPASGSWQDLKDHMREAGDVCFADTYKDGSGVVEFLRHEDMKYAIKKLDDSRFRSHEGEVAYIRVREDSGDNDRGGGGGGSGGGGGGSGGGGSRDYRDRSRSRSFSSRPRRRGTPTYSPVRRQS

[16] = target: Khdrbs1 (Mus musculus) (UniProt Q60749)
[17] = target: T13, RBMS3 (Homo sapiens) (UniProt Q6XE24)
T13 sequence: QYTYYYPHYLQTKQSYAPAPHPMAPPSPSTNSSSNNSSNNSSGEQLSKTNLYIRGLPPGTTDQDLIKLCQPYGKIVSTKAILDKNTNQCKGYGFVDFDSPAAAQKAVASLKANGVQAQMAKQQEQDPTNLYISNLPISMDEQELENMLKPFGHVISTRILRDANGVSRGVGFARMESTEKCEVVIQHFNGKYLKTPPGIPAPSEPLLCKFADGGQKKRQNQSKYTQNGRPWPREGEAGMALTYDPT

[18] = target: T14, shep (Drosophila melanogaster) (UniProt Q8MSV2)
T14 sequence: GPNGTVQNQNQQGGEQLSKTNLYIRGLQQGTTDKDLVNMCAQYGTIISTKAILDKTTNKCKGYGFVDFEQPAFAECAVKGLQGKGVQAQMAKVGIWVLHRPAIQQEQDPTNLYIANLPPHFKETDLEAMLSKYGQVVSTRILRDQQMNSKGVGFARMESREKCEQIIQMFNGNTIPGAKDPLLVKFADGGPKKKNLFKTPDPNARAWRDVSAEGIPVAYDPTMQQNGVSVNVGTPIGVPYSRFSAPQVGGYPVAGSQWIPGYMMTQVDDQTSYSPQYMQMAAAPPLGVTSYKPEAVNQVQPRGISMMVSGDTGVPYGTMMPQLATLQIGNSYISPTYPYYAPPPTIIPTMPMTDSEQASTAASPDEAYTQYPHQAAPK

[19] = target: T15, SF1 (Drosophila melanogaster) (UniProt A9UNA1)
T15 sequence: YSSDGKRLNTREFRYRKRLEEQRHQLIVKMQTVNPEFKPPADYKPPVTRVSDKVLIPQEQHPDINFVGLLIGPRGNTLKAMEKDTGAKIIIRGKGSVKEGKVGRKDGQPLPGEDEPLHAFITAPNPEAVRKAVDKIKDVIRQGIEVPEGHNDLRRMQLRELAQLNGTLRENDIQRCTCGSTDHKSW

[20] = target: T16, pum (Drosophila melanogaster) (UniProt P25822)
T16 sequence: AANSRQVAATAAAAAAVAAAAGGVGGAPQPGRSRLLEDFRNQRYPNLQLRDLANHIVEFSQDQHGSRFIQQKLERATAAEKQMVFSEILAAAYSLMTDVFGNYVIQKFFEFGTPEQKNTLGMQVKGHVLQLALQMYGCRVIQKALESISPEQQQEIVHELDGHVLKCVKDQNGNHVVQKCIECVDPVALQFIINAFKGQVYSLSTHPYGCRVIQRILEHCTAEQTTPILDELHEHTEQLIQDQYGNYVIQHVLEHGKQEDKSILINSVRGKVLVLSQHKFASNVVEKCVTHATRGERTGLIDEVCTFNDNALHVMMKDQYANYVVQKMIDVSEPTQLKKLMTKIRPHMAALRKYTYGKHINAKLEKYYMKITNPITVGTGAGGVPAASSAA

[21] = target: T17, Rbm38 (Mus musculus) (UniProt Q62176)
T17 sequence: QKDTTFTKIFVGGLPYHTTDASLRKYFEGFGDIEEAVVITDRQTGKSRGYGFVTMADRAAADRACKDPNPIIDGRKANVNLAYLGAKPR

[22] = target: T18, tiar-3 (Caenorhabditis elegans) (UniProt Q93194)
T18 sequence: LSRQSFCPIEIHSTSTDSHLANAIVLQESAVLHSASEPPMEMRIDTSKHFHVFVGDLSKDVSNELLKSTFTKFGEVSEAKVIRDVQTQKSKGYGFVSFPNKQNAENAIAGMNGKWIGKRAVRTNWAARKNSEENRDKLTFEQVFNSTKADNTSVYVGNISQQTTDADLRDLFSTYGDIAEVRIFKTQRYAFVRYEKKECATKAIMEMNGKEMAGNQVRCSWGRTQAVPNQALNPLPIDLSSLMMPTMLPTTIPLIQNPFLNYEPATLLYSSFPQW

Khdrbs1 (Mus musculus), sequence (Q60749 3-443): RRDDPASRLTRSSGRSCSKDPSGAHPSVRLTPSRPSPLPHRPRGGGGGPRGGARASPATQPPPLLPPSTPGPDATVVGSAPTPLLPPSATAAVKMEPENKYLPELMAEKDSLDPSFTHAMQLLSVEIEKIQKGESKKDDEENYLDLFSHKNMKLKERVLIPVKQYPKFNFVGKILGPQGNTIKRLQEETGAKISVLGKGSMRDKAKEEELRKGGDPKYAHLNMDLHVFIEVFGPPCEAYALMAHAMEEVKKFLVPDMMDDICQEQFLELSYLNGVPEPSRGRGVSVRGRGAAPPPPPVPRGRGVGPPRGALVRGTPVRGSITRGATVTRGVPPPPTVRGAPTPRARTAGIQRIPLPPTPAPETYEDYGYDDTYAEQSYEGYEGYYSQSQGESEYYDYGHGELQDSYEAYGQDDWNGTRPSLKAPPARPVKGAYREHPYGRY
SRSF9 (Homo sapiens), sequence (Q13242 whole entry): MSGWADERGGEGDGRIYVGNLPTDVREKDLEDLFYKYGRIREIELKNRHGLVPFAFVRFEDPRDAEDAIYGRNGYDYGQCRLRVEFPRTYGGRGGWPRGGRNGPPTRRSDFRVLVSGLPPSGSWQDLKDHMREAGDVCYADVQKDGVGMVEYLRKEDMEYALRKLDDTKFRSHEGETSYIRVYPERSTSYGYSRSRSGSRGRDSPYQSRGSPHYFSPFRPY
PABPC4 (Homo sapiens), sequence (Q13310 1-414): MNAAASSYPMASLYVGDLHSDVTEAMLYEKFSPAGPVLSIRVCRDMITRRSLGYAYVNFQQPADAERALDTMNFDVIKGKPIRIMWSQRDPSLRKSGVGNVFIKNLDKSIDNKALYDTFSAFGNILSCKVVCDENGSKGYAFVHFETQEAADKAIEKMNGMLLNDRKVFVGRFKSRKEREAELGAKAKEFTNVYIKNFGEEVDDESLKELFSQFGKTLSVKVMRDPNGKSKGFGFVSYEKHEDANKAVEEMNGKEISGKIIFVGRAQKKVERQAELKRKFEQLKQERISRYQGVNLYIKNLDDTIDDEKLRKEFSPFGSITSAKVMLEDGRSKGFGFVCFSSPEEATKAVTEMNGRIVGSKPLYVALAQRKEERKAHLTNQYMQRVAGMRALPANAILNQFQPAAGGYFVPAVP
RBM5 (Homo sapiens), sequence (P52756 1-546): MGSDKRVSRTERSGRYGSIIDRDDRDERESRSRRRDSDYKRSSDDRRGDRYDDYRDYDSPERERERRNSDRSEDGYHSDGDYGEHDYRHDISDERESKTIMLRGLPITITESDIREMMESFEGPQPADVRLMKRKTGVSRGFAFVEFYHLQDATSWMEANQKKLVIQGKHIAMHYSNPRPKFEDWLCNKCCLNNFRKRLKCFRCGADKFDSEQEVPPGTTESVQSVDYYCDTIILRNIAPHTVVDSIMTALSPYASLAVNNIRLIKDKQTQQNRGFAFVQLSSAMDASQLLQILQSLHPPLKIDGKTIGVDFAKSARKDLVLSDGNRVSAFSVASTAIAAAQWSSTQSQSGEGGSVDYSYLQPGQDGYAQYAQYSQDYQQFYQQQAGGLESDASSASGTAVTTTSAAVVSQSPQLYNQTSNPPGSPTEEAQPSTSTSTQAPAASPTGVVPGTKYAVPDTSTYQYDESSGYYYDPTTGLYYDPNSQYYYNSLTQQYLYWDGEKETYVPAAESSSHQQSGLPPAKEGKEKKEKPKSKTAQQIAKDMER

Substance: AAAAAA [RNAcompete motif RNCMPT00043]
- binding signal (z-score (mean of top ten 7-mers)) [1]: 12.2

Substance: AAUCAA [RNAcompete motif RNCMPT00054]
- binding signal (z-score (mean of top ten 7-mers)) [2]: 8.4

Substance: ACAACG [RNAcompete motif RNCMPT00058]
- binding signal (z-score (mean of top ten 7-mers)) [3]: 9.03

Substance: ACGACGA [RNAcompete motif RNCMPT00061]
- binding signal (z-score (mean of top ten 7-mers)) [4]: 10.6

Substance: ACUAACC [RNAcompete motif RNCMPT00047]
- binding signal (z-score (mean of top ten 7-mers)) [5]: 6.41

Substance: AGAUAC [RNAcompete motif RNCMPT00050]
- binding signal (z-score (mean of top ten 7-mers)) [6]: 7.1

Substance: AUACAU [RNAcompete motif RNCMPT00053]
- binding signal (z-score (mean of top ten 7-mers)) [7]: 10.7

Substance: AUGGA [RNAcompete motif RNCMPT00067]
- binding signal (z-score (mean of top ten 7-mers)) [8]: 6.71

Substance: CCAGAUG [RNAcompete motif RNCMPT00006]
- binding signal (z-score (mean of top ten 7-mers)) [9]: 11.9

Substance: CGCGCG [RNAcompete motif RNCMPT00113]
- binding signal (z-score (mean of top ten 7-mers)) [10]: 17.7

Substance: GAAAAA [RNAcompete motif RNCMPT00064]
- binding signal (z-score (mean of top ten 7-mers)) [11]: 11.1

Substance: GAAGGNA [RNAcompete motif RNCMPT00055]
- binding signal (z-score (mean of top ten 7-mers)) [12]: 6.04

Substance: GAGUAG [RNAcompete motif RNCMPT00049]
- binding signal (z-score (mean of top ten 7-mers)) [13]: 7.8

Substance: GCUGGNC [RNAcompete motif RNCMPT00063]
- binding signal (z-score (mean of top ten 7-mers)) [14]: 15.9

Substance: GGAGGA [RNAcompete motif RNCMPT00066]
- binding signal (z-score (mean of top ten 7-mers)) [15]: 14.1

Substance: UAAAAG [RNAcompete motif RNCMPT00062]
- binding signal (z-score (mean of top ten 7-mers)) [16]: 7.39

Substance: UAUAUA [RNAcompete motif RNCMPT00173]
- binding signal (z-score (mean of top ten 7-mers)) [17]: 8.57

Substance: UAUAUUA [RNAcompete motif RNCMPT00175]
- binding signal (z-score (mean of top ten 7-mers)) [18]: 7.37

Substance: UCUNAU [RNAcompete motif RNCMPT00065]
- binding signal (z-score (mean of top ten 7-mers)) [19]: 9.28

Substance: UGUACAU [RNAcompete motif RNCMPT00046]
- binding signal (z-score (mean of top ten 7-mers)) [20]: 28.5

Substance: UUUNUGU [RNAcompete motif RNCMPT00051]
- binding signal (z-score (mean of top ten 7-mers)) [21]: 17

Substance: UUUUUU [RNAcompete motif RNCMPT00005]
- binding signal (z-score (mean of top ten 7-mers)) [22]: 11
